To fix the notation:
T1: mouse SIRPβ1 on CHO cells (mouse)
T1 construct: Whole entry
T1 chain: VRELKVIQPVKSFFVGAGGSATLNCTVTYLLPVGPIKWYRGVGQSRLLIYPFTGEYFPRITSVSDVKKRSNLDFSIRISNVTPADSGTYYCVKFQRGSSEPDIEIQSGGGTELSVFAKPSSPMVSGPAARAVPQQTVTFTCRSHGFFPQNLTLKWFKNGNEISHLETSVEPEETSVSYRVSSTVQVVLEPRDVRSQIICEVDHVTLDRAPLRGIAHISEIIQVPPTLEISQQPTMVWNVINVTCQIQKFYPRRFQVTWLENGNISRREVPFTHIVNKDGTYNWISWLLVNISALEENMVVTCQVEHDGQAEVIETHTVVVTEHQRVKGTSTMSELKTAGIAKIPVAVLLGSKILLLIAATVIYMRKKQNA

B1: SB-1-2 (antibody, V domains shown)
VH: QVQLVESGGGVVQPGRSLRLSCAASGFTFGSFGMNWVRQAPGKGLEWVSAITASGGSTFYADSVKGRFTISRDNSKNTLYLQMNSLRAEDTAVYYCAKDFTEVVGWLGMDVWGQGTTVTVSS
VL: EIVMTQSPGTLSLSPGERATLSCRASQSVSSSYLAWYQQKPGQAPRLLIYGASSRATGIPDRFSGSGSGTDFTLTISRLEPEDFAVYYCQLLGSSPRTFGGGTKVEIK
notes: IgG
B2: SB-2-7 (antibody, V domains shown)
VH: EVQLLESGGGLVQPGGSLRLSCAASGFTFARYGMHWVRQAPGKGLEWVSAISGLAGPTYADSVKGRFTISRDNSKNTLYLQMNSLRAEDTAVYYCARDQTAAAAIWGMDVWGQGTTVTVSS
VL: B1 VL with I2V, M4L, L91Q, L92S, G93S, S95H, R97F
notes: IgG
B3: SB-8-13 (antibody, V domains shown)
VH: QVQLQESGPGLVKPSETLSLTCAVSGYSISAHYYWGWIRQPPGKGLEWIGSIFHSGHTYYNPSLKSRVTISVDTSKNQFSLKLSSVTAADTAVYYCARGGAMTPAGMDVWGQGTTVTVSS
VL: B1 VL with S54N, L91Q, L92V, G93Y, R97Y
notes: IgG
B4: SB-1-3 (antibody, V domains shown)
VH: B1 VH with Q1E, V11L, Q13K, R16G, G30S, S31A, F32Y, A53S, G56R, F59Y
VL: B1 VL
notes: IgG
B5: SB-8-15 (antibody, V domains shown)
VH: B3 VH with F53Y, H54Q
VL: B1 VL with S54N, L91Q, L92V, G93Y, R97Y
notes: IgG
B6: SB-2-8 (antibody, V domains shown)
VH: B2 VH with E1Q, L5V, L11V, G16R, A30L, R31D, G53A, L54F, P57S
VL: B1 VL with I2V, M4L, L91Q, L92S, G93S, S95H, R97F
notes: IgG
B7: SB-40-20 (antibody, V domains shown)
VH: QVQLVQSGAEVKKPGASVKVSCKASGYTFTSFYISWVRQAPGQGLEWMGIINPSSGHTNYAQKLQGRVTMTTDTSTSTAYMELSSLRSEDTAVYYCARDTGEYSYSPHGMDVWGQGTTVTVSS
VL: EIVLTQSPATLSLSPGERATLSCRASQSVSSYLAWYQQKPGQAPRLLIYDSSNRATGIPARFSGSGSGTDFTLTISSLEPEDFAVYYCQQRDEHPPWTFGGGTKVEIK
notes: IgG
B8: 18D5 (antibody, V domains shown)
VH: QVQLQQPGAELVRPGSSVKLSCKASGYTFTSYWVHWVKQRPIQGLEWIGNIDPSDSDTHYNQKFKDKASLTVDKSSSTAYMQLSSLTFEDSAVYYCVRGGTGTMAWFAYWGQGTLVTVSA
VL: DVVMTQTPLSLPVSLGDQASISCRSSQSLVHSYGNTYLYWYLQKPGQSPKLLIYRVSNRFSGVPDRFSGSGSGTDFTLKISRVEAEDLGVYFCFQGTHVPYTFGSGTKLEIK

Changes are numbered by the printed parent chain.
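For FOB in this document: antibody binding to cells detected with a PE-labelled secondary antibody, given as mean fluorescence intensity relative to background.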

T6 sequence (Q5TFQ8 30-371 limits assumed, one chain of several): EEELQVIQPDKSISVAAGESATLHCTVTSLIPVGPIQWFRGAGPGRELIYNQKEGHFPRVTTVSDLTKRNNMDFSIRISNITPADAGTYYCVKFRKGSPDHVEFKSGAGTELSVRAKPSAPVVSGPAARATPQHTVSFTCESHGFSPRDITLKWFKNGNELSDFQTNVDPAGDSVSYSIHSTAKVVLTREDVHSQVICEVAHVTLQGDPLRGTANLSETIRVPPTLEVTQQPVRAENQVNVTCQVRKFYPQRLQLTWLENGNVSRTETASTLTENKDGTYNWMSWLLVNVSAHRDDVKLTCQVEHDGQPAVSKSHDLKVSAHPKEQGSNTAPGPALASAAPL
T3 sequence (O00241 30-398): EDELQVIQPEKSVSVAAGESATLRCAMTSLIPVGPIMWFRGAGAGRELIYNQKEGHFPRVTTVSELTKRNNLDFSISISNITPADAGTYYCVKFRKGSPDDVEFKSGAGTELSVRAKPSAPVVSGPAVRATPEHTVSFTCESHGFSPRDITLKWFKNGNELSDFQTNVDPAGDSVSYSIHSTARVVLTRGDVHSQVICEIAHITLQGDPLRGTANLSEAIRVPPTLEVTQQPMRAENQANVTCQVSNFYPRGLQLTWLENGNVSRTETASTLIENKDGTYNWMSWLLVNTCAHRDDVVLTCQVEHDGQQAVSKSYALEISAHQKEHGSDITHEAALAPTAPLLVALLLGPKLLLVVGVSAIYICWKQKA

The first assay concerns the target T2, human SIRPα on cells (human, UniProt P78324 31-504).
T2 construct: Whole entry
In words: flow cytometry.
As to B1, the binding result was “no binding (tested: 1 ug/ml)”.
Same read-out and setting: the entry for B2 is “no binding (tested: 1 ug/ml)”.

The target in another assay is T1, mouse SIRPβ1 on CHO cells. Nature of the assay: flow cytometry.
Take B1: the binding result is on record as “no binding (tested: 1 ug/ml)”.
On the same count and under the same terms, as for B2, the entry is “no binding (tested: 1 ug/ml)”.
The same measure, in the same setting: the entry for B3 is “no binding (tested: 1 ug/ml)”.
Same read-out and setting: the entry for B4 is “no binding (tested: 1 ug/ml)”.
As for B5, the binding result was “no binding (tested: 1 ug/ml)”.
The same measure, in the same setting: the entry for B6 is “no binding (tested: 1 ug/ml)”; for B7 it is “no binding (tested: 1 ug/ml)”.

A further assay addresses T3, human SIRPβ1 isoform 1 on cells (human, UniProt O00241 30-398).
T3 construct: On CHO cells (low level), on BWZ/BW5147.G.1.4 cells (reporter cells co-express human DAP12) or on primary human myeloid cells; also called huSIRPβ1; BWZ-huSIRPβ1
Nature of the assay: flow cytometry.
Molecule B1 registered an FOB of 4 fold over background.
Same read-out and setting: as for B2, the figure is 5 fold over background.
On the same count and under the same terms, as for B3, the figure is 7 fold over background; as for B4, 4 fold over background.
Molecule B5 displayed an FOB of 7 fold over background.
Regarding B6, the FOB came to 5 fold over background.
In the case of B7, the FOB is 3 fold over background.

For the next assay, the target named is T2, human SIRPα on cells. Nature of the assay: flow cytometry. The source holds these as a separate data set.
Molecule B1 returned an FOB of 1 fold over background.
Still for that read-out and setting: as for B2, the figure is 1 fold over background; as for B3, 1 fold over background.
Same read-out and setting: the figure for B4 is 0 fold over background.
The same measure, in the same setting: the figure for B5 is 1 fold over background; for B6 it is 1 fold over background.
The molecule B7 gave an FOB of 1 fold over background.

Another assay addresses T1, mouse SIRPβ1 on CHO cells. Nature of the assay: flow cytometry. The source holds these as a separate data set.
In the case of B1, the FOB was found to be 1 fold over background.
Same read-out and setting: the figure for B2 is 1 fold over background; for B3 it is 2 fold over background; for B4 it is 2 fold over background.
As for B5, the FOB was 1 fold over background.
On the same count and under the same terms, as for B6, the figure is 1 fold over background; as for B7, 2 fold over background.

The target in a further assay is T4, human SIRPα domain 1 (D1) Fc fusion (human, UniProt P78324 32-149).
T4 construct: also called human SIRPα D1-Fc; Human SIRPα Fc; not shown: C-terminal human IgG1 Fc
Nature of the assay: Octet, IgG avid.
As for B1, the binding result is listed as “no binding (tested: 100 nM)”.
On the same count and under the same terms, the entry for B2 is “no binding (tested: 100 nM)”; for B3 it is “no binding (tested: 100 nM)”.
On the same count and under the same terms, the entry for B4 is “no binding (tested: 100 nM)”; for B5 it is “no binding (tested: 100 nM)”; for B6 it is “no binding (tested: 100 nM)”.
The same measure, in the same setting: the entry for B7 is “no binding (tested: 100 nM)”.

In the next assay the target is T5, Soluble, human SIRPβ1-Fc isoform 1 (O00241) (human, UniProt O00241 30-371, limits assumed).
T5 construct: Whole entry named; also called human SIRPβ1 isoform 1
T5 sequence (O00241 30-371 limits assumed, one chain of several): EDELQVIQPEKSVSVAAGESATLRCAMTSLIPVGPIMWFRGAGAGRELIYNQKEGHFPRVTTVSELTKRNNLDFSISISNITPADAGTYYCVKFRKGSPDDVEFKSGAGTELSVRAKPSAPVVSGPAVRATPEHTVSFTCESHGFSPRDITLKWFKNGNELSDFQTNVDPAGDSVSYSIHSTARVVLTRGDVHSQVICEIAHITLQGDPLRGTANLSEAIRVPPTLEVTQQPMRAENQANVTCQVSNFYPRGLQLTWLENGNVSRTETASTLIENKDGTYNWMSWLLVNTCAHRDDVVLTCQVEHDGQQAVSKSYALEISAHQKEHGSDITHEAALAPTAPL
Nature of the assay: ELISA, antigen coated.
Text: Recombinant antigen based on the sequence of SIRPβ1 isoform 1 was used for selecting anti-SIRPβ1 antibodies from yeast library pools. To ascertain if the selected anti-SIRPβ1 antibodies cross-reacted with other isoforms of human SIRPβ1 or with cynomolgus SIRPβ1, recombinant antigens based on human SIRPβ1 isoform 3 sequence and cynomolgus SIRPβ1 isoform 1 sequence were produced by transient transfection in HEK293 cells. Purified, Fc-tagged recombinant proteins were adsorbed onto 96-well plates at 1 μg/mL overnight at 4° C. Plates were subsequently washed with PBS+0.05% Tween-20 and blocked with 1% BSA+PBS for 2 hours at room temperature. Antibodies diluted in blocking buffer at 1 μg/mL were added to wells, serially diluted, and allowed to bind antigen overnight at 4° C. The following day, the primary antibodies were removed and anti-human kappa light chain antibody conjugated to horseradish peroxidase diluted 1:10,000 in blocking buffer were added to wells and incubated for 1 hour at room temperature. Plates were washed with PBS+0.05% Tween-20 and 100 μL of TMB substrate solution was added to wells to generate a colorimetric signal proportional to amount of anti-SIRPβ1 antibody bound to antigen. Once the reaction reached an appropriate color intensity, 100 μL of Stop solution was added to quench the enzyme.
(§1) Eight anti-SIRPβ1 antibodies (four parental antibodies and four corresponding affinity matured antibodies) were selected for analysis.
B1 showed a 50% effective concentration (EC50) of 0.045 nM.
Regarding B2, the EC50 was 0.029 nM.
Same read-out and setting: as for B3, the figure is 0.019 nM.

The next assay concerns the target T3, human SIRPβ1 isoform 1 on cells. Nature of the assay: flow cytometry titration, BWZ-huSIRPβ1 cells.
Experimental: (§2) In these experiments, two antibodies previously described were used as positive controls: antibody 18D5 (an anti-SIRPβ antibody that cross-reacts with SIRPα and SIRPβ) and antibody KWAR23 (an anti-SIRPβ antibody that cross-reacts with SIRPα, SIRPβ, and SIRPγ). These antibodies were recombinantly produced on a human IgG4 backbone. […] Serial dilutions of each of the anti-SIRPβ1 monoclonal antibodies and control antibodies were added to 10⁵ cells and allowed to achieve binding equilibrium at 4° C. After addition of fluorescently-labeled secondary antibody and brief washing steps, MFI values as a function of titrated antibody concentration were recorded via FACS analysis.
In Table 14 below, EC50 values assign relative affinity by adding increasing concentrations of antibody variants to cells overexpressing SIRPβ 1. Receptor bound antibodies were detected by staining cells with anti-human IgG PE secondary antibody (Southern Biotech). Curves were fit using nonlinear regression analysis with Graphpad Prism 6 software.
Take B3: the EC50 is 0.199 nM.
Still for that read-out and setting: as for B4, the figure is 0.0284 nM; as for B5, 0.596 nM.
The same measure, in the same setting: the figure for B6 is 0.203 nM; for B8 it is 0.477 nM.
Same read-out and setting: as for B7, the figure is 8.7 nM.

The next assay has the same target. Nature of the assay: cell binding titration; target not given.
The molecule B1 returned an EC50 of 0.059 nM.
With B2, the EC50 amounted to 0.132 nM.
The same measure, in the same setting: as for B3, the figure is 0.253 nM.
Same read-out and setting: the figure for B4 is 0.062 nM; for B5 it is 0.737 nM.
Regarding B6, the EC50 stood at 0.174 nM.
Same read-out and setting: as for B7, the figure is 0.405 nM.

A further assay addresses T6, human SIRPβ1-Fc isoform 3 (Q5TFQ8) (human, UniProt Q5TFQ8 30-371, limits assumed).
T6 construct: Whole entry named; made in HEK293 cells; also called human SIRPβ1 isoform 3
Nature of the assay: ELISA on plate-coated huSirpB-Fc (Q5TFQ8.1), anti-human kappa-HRP, A450.
Experimental: To ascertain if the selected anti-SIRPβ1 antibodies cross-reacted with other isoforms of human SIRPβ1 or with cynomolgus SIRPβ1, recombinant antigens based on human SIRPβ1 isoform 3 sequence and cynomolgus SIRPβ1 isoform 1 sequence were produced by transient transfection in HEK293 cells. Purified, Fc-tagged recombinant proteins were adsorbed onto 96-well plates at 1 μg/mL overnight at 4° C. Plates were subsequently washed with PBS+0.05% Tween-20 and blocked with 1% BSA+PBS for 2 hours at room temperature. Antibodies diluted in blocking buffer at 1 μg/mL were added to wells, serially diluted, and allowed to bind antigen overnight at 4° C. The following day, the primary antibodies were removed and anti-human kappa light chain antibody conjugated to horseradish peroxidase diluted 1:10,000 in blocking buffer were added to wells and incubated for 1 hour at room temperature. Plates were washed with PBS+0.05% Tween-20 and 100 μL of TMB substrate solution was added to wells to generate a colorimetric signal proportional to amount of anti-SIRPβ1 antibody bound to antigen. Once the reaction reached an appropriate color intensity, 100 μL of Stop solution was added to quench the enzyme.
as §1
On to B1, for which the binding result is “no binding (tested: 1 ug/mL)”.
For the molecule B2, the binding result is “no binding (tested: 1 ug/mL)”.
On the same count and under the same terms, as for B3, the entry is “no binding (tested: 1 ug/mL)”.

In the next assay the target is T7, SIRPγ on Jurkat cells (human, UniProt Q9P1W8 29-387).
T7 construct: whole, on cells
T7 sequence (Q9P1W8 29-387): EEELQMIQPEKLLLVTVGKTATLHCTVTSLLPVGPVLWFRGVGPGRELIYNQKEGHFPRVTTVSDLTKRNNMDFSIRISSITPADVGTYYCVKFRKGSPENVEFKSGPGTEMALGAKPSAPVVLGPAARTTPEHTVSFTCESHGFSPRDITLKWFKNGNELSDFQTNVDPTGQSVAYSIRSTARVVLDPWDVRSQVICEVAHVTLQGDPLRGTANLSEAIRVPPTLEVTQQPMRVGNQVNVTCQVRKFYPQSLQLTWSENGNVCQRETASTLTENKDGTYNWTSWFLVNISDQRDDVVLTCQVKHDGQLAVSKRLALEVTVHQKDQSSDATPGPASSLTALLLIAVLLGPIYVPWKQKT
In words: flow cytometry on Jurkat cells (endogenous SIRPγ), fold over isotype (MFI).
Experimental: (§3) To determine antigen specificity of anti-SIRPβ1 antibodies of the present disclosure, cell-based affinity measurements were performed to ascertain the apparent affinities of affinity-matured anti-SIRPβ 1 antibodies to cell surface-expressed antigen. BW5147.G.1.4 cells, an immortalized mouse T-cell line, were engineered to overexpress human SIRPβ1 (BWZ-huSIRPβ1) or human SIRPα (BWZ-huSIRPα). Jurkat cells, an immortalized human T cell line, endogenously express SIRPγ.
as §2
(§4) Receptor bound antibodies were detected by staining cells with anti-human IgG PE secondary antibody (Southern Biotech). Curves were fit using nonlinear regression analysis with Graphpad Prism 6 software.
Consider B3, for which the binding result is listed as “no binding (tested: Log nM about 1.8 (about 60 nM))”.
On the same count and under the same terms, the entry for B4 is “no binding (tested: Log nM about 1.8 (about 60 nM))”; for B5 it is “no binding (tested: Log nM about 1.8 (about 60 nM))”; for B6 it is “no binding (tested: Log nM about 1.8 (about 60 nM))”.
Consider B7, for which the binding result is “no binding (tested: Log nM about 1.8 (about 60 nM))”.

A further assay addresses T2, human SIRPα on cells. Nature of the assay: flow cytometry on BWZ cells overexpressing human SIRPα, fluorescent secondary antibody, MFI.
Experimental: as §3, §2, §4
Take B3: the binding result is on record as “no binding (tested: Log nM about 0.8 (about 7 nM))”.
Still for that read-out and setting: the entry for B4 is “no binding (tested: Log nM about 0.8 (about 7 nM))”; for B5 it is “no binding (tested: Log nM about 0.8 (about 7 nM))”; for B6 it is “no binding (tested: Log nM about 0.8 (about 7 nM))”.
Turning to B8, the 50% effective concentration (EC50 (read off the curve)) was around 0.2 nM.
For the molecule B7, the binding result is on record as “no binding (tested: Log nM about 0.8 (about 7 nM))”.

These data come from patent US20250026827A1 (Alector, published 2025).
